The text below walks through data of publication PMC3491057, “Proliferating Cell Nuclear Antigen (PCNA) Interactions in Solution Studied by NMR” (PLoS ONE, 2012).

Entries after “also recorded” stand apart in the source; their conditions may differ.

Assay [1] has as its system PCNA. The conditions noted are these: co-immunoprecipitation, lysates from co-transfected human embryonic cells and native HeLa cells; cited from earlier work. The text has this: MCL-1 is a member of the pro-survival B-cell lymphoma-leukemia-2 (Bcl-2) family that preserves mitochondrial integrity during apoptosis. It consists of an intrinsically disordered, 170 residue long N-terminal region and a C-terminal globular domain with three Bcl-2 homology (BH) regions. […] MCL-1 has a sequence that meets this minimal PIP-box motif (^221 […] ^228) at the end of the BH3 region in its globular C-terminal domain.

The subject of assay [2] is PCNA C-terminal fragment 137–261. The conditions noted are these: yeast two-hybrid; cited from earlier work. The text has this: MCL-1 has a sequence that meets this minimal PIP-box motif (^221 […] ^228) at the end of the BH3 region in its globular C-terminal domain.
A further assay deals with T1, human PCNA (Homo sapiens, UniProt P12004).
T1 construct: His6 tag with PreScission protease cleavage site (N, cleaved yes); made in house; host or cells: E. coli
The experiment in a line: NMR (TROSY) examination of the interaction of PCNA with MCL-1 construct. The class given is binding. The conditions noted are these: 35°C; for binding to PCNA (chemical shift or intensity changes): 50 µM 2H-15N PCNA, 220 µM MCL-1 construct (4.4 equivalents), 10 mM Tris pH 7.4, 250 mM NaCl, 1 mM EDTA, 0.5 mM DTT, 800 MHz. On the procedure: The human MCL-1 ΔN151−ΔC7 construct cloned in vector pET32a was expressed and purified as described. Briefly, the protein was expressed in E. coli BL21(DE3) cells with a histidine-tag and a Tev protease site at the N-terminus, and was purified by two chromatography steps: immobilized nickel ion affinity and size exclusion.
Unless indicated otherwise, the NMR spectra were recorded on a Bruker AV600 spectrometer equipped with a cryogenically-cooled triple resonance z-gradient probe at 35°C on PCNA samples with or without ligands in PBS pH 7.0. The spectra in Figures S2, S4, S7 and S8 were recorded on a Bruker AV800 spectrometer with a cryogenically-cooled triple resonance z-gradient probe on samples and buffers described in the corresponding legends. TROSY-based 3D HNCO, HN(CA)CO, HNCACB, HN(CO)CACB, and HNCA [21] were recorded for resonance assignment. Spectra were processed with TopSpin (Bruker) or with NMRPipe and analyzed using NMRView. Peak intensities were evaluated by the peak heights measured using CCPNMR [24].
We have monitored the binding of MCL-1 to PCNA by NMR using an MCL-1 construct that lacks most of the disordered N-terminal region but retains the C-terminal domain correctly folded. […] As no significant CSPs were measured, it is not possible to confirm the interaction, but a lower limit for the dissociation constant of the putative complex can be estimated. Assuming an equimolar complex, and that we should be able to detect significant changes when at least 20% of PCNA is bound to MCL-1 [42], a lower limit of the dissociation constant can be calculated. […]
Supplementary file pone.0048390.s007.tif: Figure S7 NMR examination of the interaction of PCNA with MCL-1. ^1H-^15N TROSY spectra of 50 µM uniformly labeled ^2H-^15N PCNA alone (black) or in the presence (red) of 220 µM of the ΔN151−ΔC7 fragment of human MCL-1 (1∶4.4 ratio on a PCNA monomer basis). The spectra were recorded in 10 mM Tris pH 7.4, 250 mM NaCl, 1 mM EDTA, 0.5 mM DTT at 800 MHz and 35°C. […]

In assay [3] the test system is PCNA. Further details: method as in PMID 20460379. Conditions: cited from earlier work.

T1 sequence (P12004 whole entry): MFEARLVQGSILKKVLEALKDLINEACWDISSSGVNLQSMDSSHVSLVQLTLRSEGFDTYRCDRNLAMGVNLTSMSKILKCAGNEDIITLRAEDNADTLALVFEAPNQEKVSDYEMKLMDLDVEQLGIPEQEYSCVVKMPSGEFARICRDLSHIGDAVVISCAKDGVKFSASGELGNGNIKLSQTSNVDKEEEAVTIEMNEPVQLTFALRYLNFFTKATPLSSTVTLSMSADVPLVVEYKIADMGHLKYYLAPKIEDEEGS

B1: MCL-1: Myeloid cell leukemia 1 protein, literature interaction with PCNA (protein)
chain: NNTSTDGSLPSTPPPAEEEEDELYRQSLEIISRYLREQATGAKDTKPMGRSGATSRKALETLRRVGDGVQRNHETAFQGMLRKLDIKNEDDVKSLSRVMIHVFSDGVTNWGRIVTLISFGAFVAKHLKTINQESCIEPLAESITDVLVRTKRDWLVKQRGWDGFVEFFHVEDLEGGIRNVLLAFAGVAGVGA
modifications: left off: His tag, N-terminal, kept
As to B1, in the assay with PCNA [1], the “interaction with PCNA” value is on record as “interact with PCNA; also recorded: detected by co-immunoprecipitation”. In assay [2], the “interaction with PCNA fragment 137–261” value is recorded as “sufficient for the interaction with MCL-1”.

B2: ΔN151−ΔC7: MCL-1 residues 152–343 plus an N-terminal histidine-tag (protein)
chain: B1 chain
modifications: left off: His tag, N-terminal, kept
Consider B2, for which the entries for the “binding to PCNA (chemical shift or intensity changes)” value with human PCNA and with human PCNA (listed as Bcl-2 domain of MCL-1) were “did not observe any indication of binding” and “did not detect binding”, respectively. In the assay with human PCNA (assuming equimolar complex and detection at ≥20% PCNA bound, 50 µM PCNA, 220 µM MCL-1 construct, read-out: dissociation constant (lower limit)), the Kd is > 840 µM.

B3: Gadd45α: Growth arrest and DNA damage 45 alpha protein (protein, UniProt P24522 1-165, looked up)
Growth arrest and DNA …: MTLEEFSAGEQKTERMDKVGDALEEVLSKALSQRTITVGVYEAAKLLNVDPDNVVLCLLAADEDDDRDVALQIHFTLIQAFCCENDINILRVSNPGRLAELLLLETDAGPAASEGAEQPPDLHCVLVTNPHSSQWKDPALSQLICFCRESRYMDQWVPVINLPER
Consider B3, for which the “direct interaction with PCNA in solution” value in the assay on PCNA [3] is “extremely weak”.
